# Results: patent EP1724589A2
# Assays:
# S-100b [1] = experiment: ELISA: S-100b coated at 500 ng/well, sRAGE at 1.0 x 10^-4 mg/ml, detected with anti-sRAGE antibody complex
# S-100b [2] = experiment: ELISA: 88 wells coated with S-100b at 500 ng/well, sRAGE at 2.2 x 10^-4 mg/ml, polyclonal anti-sRAGE detection (Figure 7)
# S-100b [3] = experiment: ELISA saturation curve with Scatchard analysis (Figure 8): S-100b coated at 50 ng/well, sRAGE about 0.3 to 10 nM, high affinity component
# S-100b [4] = experiment: ELISA saturation curve with Scatchard analysis (Figure 9): S-100b coated at 100 ng/well, sRAGE about 0.3 to 10 nM, high affinity component
# S-100b [5] = experiment: ELISA saturation curves with Scatchard analysis (Figures 10 and 11): S-100b coated at 500 and 100 ng/well, sRAGE about 23 to 470 nM or 5 to 76 nM, low affinity site
substance,measurement,setting,value
"soluble RAGE (sRAGE), the soluble, extracellular portion of human Receptor for Advanced Glycated Endproducts (from UniProt Q15109 23-339)",OD (maximal signal),S-100b [1],1.06 OD
same,average OD405,S-100b [2],0.705 OD405
same,Kd,S-100b [3],6 nM
same,Kd,S-100b [4],2 nM
same,Kd,S-100b [5],60 nM
